Measured values: patent publication US20250250321A1

Target: immunoglobulin G (IgG) obtained from human serum (human)
Test: human serum IgG (2 mg/mL) bound to Protein A on latex beads, washed, read by SDS-PAGE

Protein A polymer (UniStac linear multimeric polymer of Protein A) immobilized on latex beads
increase of binding activity compared to beads with the Protein A monomer: > 15%
